Experimental data from paper PMC10138300, “Molecular Recognition of Methacryllysine and Crotonyllysine by the AF9 YEATS Domain” (International Journal of Molecular Sciences, 2023).
Starred links: 1 amine or outer side, 2 acyl side, 3 side chain; linkers in the order of their positions; H or OH if unused. Non-standard residues stand in square brackets, D forms with d. No end group written: not given here. Kmea = methacryllysine, C=C(C)C(=O)NCCCC[C@H](N[*:1])C(=O)[*:2]; Kcr = crotonyllysine, C/C=C/C(=O)NCCCC[C@H](N[*:1])C(=O)[*:2]

Tests used:
[1] = target: T1, human AF9 YEATS domain (residues 1–138) (Homo sapiens, UniProt P42568); test: ITC binding assay with AF9 YEATS domain; conditions: MicroCal PEAQ-ITC, 50 mM NaH2PO4, 500 mM NaCl, 2 mM EDTA, 2 mM β-ME, H3 peptides 1.1–2.7 mM titrated into AF9 YEATS 94–205 μM, One Set of Sites model, n = 3, errors as standard error (SE)
T1 construct: containing the cloned AF9 YEATS gene (amino acids 1–138) with an N-terminal 6xHis tag; 6xHis (N); made in house; host or cells: E. coli Rosetta 2(DE3)pLysS
T1 sequence (P42568 1-138): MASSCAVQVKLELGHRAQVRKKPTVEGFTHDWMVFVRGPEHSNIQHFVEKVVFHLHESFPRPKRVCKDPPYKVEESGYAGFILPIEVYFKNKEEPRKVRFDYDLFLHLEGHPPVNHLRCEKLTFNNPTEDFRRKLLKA
Experimental: The plasmid was transformed into Rosetta 2(DE3)pLysS E. coli cells (Novagen, Darmstadt, Germany) by the heat-shock method. Transformed cells were cultivated at 37 °C in TB medium supplemented with 50 μg/mL kanamycin and 35 μg/mL chloramphenicol. The cultivation continued until the culture’s OD600 reached 1.5. Then the culture was cooled down to room temperature (RT), and the protein expression was induced by adding isopropyl β-d-1-thiogalactopyranoside (IPTG) at a final concentration of 0.3 mM. The cultivation was continued for 18 h at RT. After the protein expression was completed, the cells were harvested by centrifuging the culture at 6500 rpm at 4 °C for 15 min. The pellets were then resuspended in cell lysis buffer containing 50 mM Tris, 500 mM NaCl, 30 mM imidazole, at pH 7.4, 1 mM phenylmethylsulfonyl fluoride (PMSF), 2 mM β-mercaptaethanol (β-ME), and 20 μg/mL DNase I. Subsequently, the cells were lysed using the One Shot Cell Disrupter (Constant Systems LTD, Daventry, UK), and the cell debris was settled down by centrifuging the lysate at 19500 rpm at 4 °C for 20 min. […]
ITC experiments were performed using a MicroCal PEAQ-ITC instrument (Malvern Panalytical, Malvern, UK). […] The concentrations of all histone peptides and proteins were measured by UV analysis on a Thermo-Fisher Nanodrop spectrophotometer in buffer using λmax at 215 nm and 280 nm, respectively. […]

[2] = target: T2, recombinant human AF9 YEATS domain (residues 1–138) (human, UniProt P42568 1-138); test: ITC; H3 peptides (1.1–2.7 mM) titrated into AF9 YEATS (94–205 μM), 19 injections; 50 mM NaH2PO4, 500 mM NaCl, 2 mM EDTA, 2 mM β-ME; One Set of Sites model; triplicates; conditions: both partners purified
T2 construct: AF9 (MLLT3), human, YEATS domain, amino acids 1-138, in pET28b(+); Plasmid was a gift from Prof; No step that removes the tag is described; the final SEC product is called 6xHis AF9 YEATS, so the tag was probably still on in ITC; also called 6xHis-AF9 YEATS; source: E. coli Rosetta 2(DE3)pLysS, purified (HisTrap Ni-NTA, Superdex 75 SEC)
T2 sequence (looked up): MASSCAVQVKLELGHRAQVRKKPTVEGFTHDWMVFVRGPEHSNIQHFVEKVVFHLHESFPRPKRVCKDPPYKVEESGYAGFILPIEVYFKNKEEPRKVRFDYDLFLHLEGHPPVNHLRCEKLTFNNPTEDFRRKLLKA

**Q.** Which “N (Stoichiometry)” value [1] does the source give for `C/C=C/C(=O)NCCCC[C@H](NC(=O)[C@H](CCCNC(=N)N)NC(=O)[C@H](C)NC(=O)[C@@H](NC(=O)[C@H](CCC(N)=O)NC(=O)[C@H](CCCCN)NC(=O)[C@@H](N)[C@@H](C)O)[C@@H](C)O)C(=O)N[C@@H](CO)C(=O)N[C@H](C(=O)NCC(=O)NCC(=O)N[C@@H](CCCCN)C(=O)N[C@@H](C)C(N)=O)[C@@H](C)O` [H3K9cr] here?
**A.** Its value is 0.98 ± 0.01.

B1: histone H3K9cr peptide (residues 3–15) (peptide)
peptide: TKQTAR[Kcr]STGGKA-NH2
notes: histone H3, residues 3-15; the stretch is the same in H3.1, H3.2 and H3.3; Made on Rink amide resin, so the C-terminus is probably an amide; last residue coupled as N-alpha-Boc amino acid, so the N-terminus is probably free; source: synthetic peptide (Fmoc-SPPS on Rink amide resin, RP-HPLC purified)
**Q.** What does the source list for B1?
**A.** Kd [2]: 11 µM; stoichiometry N [2]: 0.98

B2: histone H3K9mea peptide (residues 3–15) (peptide)
peptide: TKQTAR[Kmea]STGGKA-NH2
notes: as for B1
**Q.** For B2, which Kd [2] is on record?
**A.** The Kd was 59 µM.

**Q.** And the “stoichiometry N” value [2]?
**A.** The value was 1.02.

B3: histone H3K18cr peptide (residues 10–25) (peptide)
peptide: STGGKAPRKQLATKAA
modifications: crotonyllysine (Kcr) at K18
notes: histone H3, residues 10-25; the stretch is the same in H3.1, H3.2 and H3.3; Made on Rink amide resin, so the C-terminus is probably an amide; last residue coupled as N-alpha-Boc amino acid, so the N-terminus is probably free; also called H3K18Kcr; source: synthetic peptide (Fmoc-SPPS on Rink amide resin, RP-HPLC purified)
**Q.** With B3 as the molecule, how does the Kd [2] read?
**A.** The Kd was 21 µM.

B4: histone H3K18mea peptide (residues 10–25) (peptide)
peptide: STGGKAPRKQLATKAA
modifications: methacryllysine (Kmea) at K18
notes: histone H3, residues 10-25; the stretch is the same in H3.1, H3.2 and H3.3; Made on Rink amide resin, so the C-terminus is probably an amide; last residue coupled as N-alpha-Boc amino acid, so the N-terminus is probably free; source: synthetic peptide (Fmoc-SPPS on Rink amide resin, RP-HPLC purified)
**Q.** B4 was tested. Which Kd [2] did it give?
**A.** Its Kd is 114 µM.
